Measured values: the supplement of paper PMC10567573
± gives the standard deviation.

Test: protein stability index of a GFP-peptide fusion (GPS, HEK-293T) (PSI 1-6); higher = more stable
Conditions: c terminus: a fixed tail appended
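Note: 24-mer peptide tiles fused after GFP, lentivirally expressed, FACS-sorted into six equal bins by GFP/DsRed ratio, decoded by Illumina sequencing, PSI is the read-weighted mean bin number.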

Sequence	protein stability index (treatment: DMSO)	protein stability index (treatment: MLN4924 1 uM, 8 h)
LGSSRTPETVRMVLSNMEKLFCIP [IMPA1]	2.08 ± 0.39	2.2 ± 0.26
LHILARDVHNRIVIRGLNTIPLFV [CTNNB1]	2.73 ± 0.48	2.68 ± 0.56
LHSISDSVLFLQEFGALMSNYSLP [TRIM29]	2.41 ± 0.43	2.12 ± 0.26
LIKDAIVSTQPAMMVNLRACSAPG [C2CD2L]	2.82 ± 0.26	2.54 ± 0.31
LIKPSRVVAILAAACLLQLDGLIQ [GMCL1]	3.11 ± 0.32	2.89 ± 0.27
LILESQNWRYATGGWETVFRPVSE [FUT8]	2.42 ± 0.22	2.29 ± 0.11
LIRLFWTWHDERFLYMLMEYVPGG [PRKX]	2.59 ± 0.47	2.48 ± 0.35
LITFDNKAHSGRIPISLETQAHIQ [MCOLN1]	2.91 ± 0.26	3.04 ± 0.23
LKFDAYFQEDVPMSTEEQYRIRQV [EFHC1]	3.44 ± 0.14	3.46 ± 0.28
LKIDFGDSARADDARQLFVLAGAA [GNAI1]	2.59 ± 0.37	2.68 ± 0.27
LKPTASKLGAPLSGLQGLPECTRC [PDLIM4]	3.24 ± 0.31	3.44 ± 0.12
LKRLYRAPIDWIEEYTTGMADCIL [ALG2]	2.26 ± 0.68	2.28 ± 0.69
LKRSANQMGVSAKRRPKAQPTTLV [MED27]	3.48 ± 0.17	3.72 ± 0.27
LKTQMKMSLKCLAARAVRANDINY [FEM1B]	3.02 ± 0.44	2.67 ± 0.16
LKYFSDFRPYFTIHDSEFKEYTTR [DENND6A]	2.19 ± 0.32	2.3 ± 0.2
LKYMEVTLRPTDSQSHCYRTCFSP [PCDHGC5]	2.31 ± 0.2	2.25 ± 0.34
LLATAEQEQLSLSQRQAKELKLEQ [LRRC45]	4.88 ± 0.21	5.02 ± 0.15
LLATFPRRALAPPSAGFRCCAAPG [ANKRD9]	2.47 ± 0.16	2.45 ± 0.14
LLHLAVNSNTPVDDFHTNDVCSFP [FEM1B]	2.85 ± 0.25	2.74 ± 0.12
LLKAGAEVNVLNDMRDTPLHRAAF [OSBPL1A]	3.12 ± 0.24	3 ± 0.17
LLPNQSHGNQSAGEDQAFGDWLLT [SLC22A15]	4.14 ± 0.35	4.24 ± 0.18
LLRDHIPRGKEELESLGGGKTPPG [MOG]	4.89 ± 0.18	4.81 ± 0.37
LLRREPAERLTATGILLHPWLRQD [TRIB3]	2.47 ± 0.27	2.45 ± 0.25

Sequence	protein stability index (treatment: DMSO)	protein stability index (treatment: MLN4924 1 uM, 8 h)
LNHVKSMWYPEIKHFCPRTPVILV [RHOBTB1]	3.16 ± 0.47	3.1 ± 0.82
LNIKVKLEAEIATYRRLLEDGEDF [KRT18]	2.66 ± 0.2	2.5 ± 0.34
LNIVPRTKVVYLASETFNYSAIDR [PI4K2A]	2.28 ± 0.18	2.07 ± 0.2
LNLAMVYRYCCKLNKKLKSYSLSR [CDC14A]	3.32 ± 0.69	3.04 ± 0.49
LNRDEEIIKQLQKGVQQKRPSEAQ [DENND6A]	4.94 ± 0.097	4.83 ± 0.31
LNVRSEEQVFNAVMAWVKYSIQER [KLHL20]	2.54 ± 0.77	2.42 ± 0.23
LPDCCHGSELRDFPGRPMGHLSKD [DLC1]	4.44 ± 0.29	4.32 ± 0.27
LPGSDVSGRLMGSPPVPGPSAALT [FBXO28]	4.42 ± 0.16	4.6 ± 0.33
LQLQKGSDTEAQCEVMQEIVDQVL [INTS3]	3.63 ± 0.35	3.93 ± 0.19
LQNEAQKRESFLKYKCLLQQLYYT [IQUB]	2.16 ± 0.43	2.24 ± 0.21
LQTMLRQSAFLHLPLPEQIHKASA [INTS4]	2.56 ± 0.22	2.44 ± 0.15
LRAEEIETRVTSGSMEALNLKQLR [PPFIA4]	4.32 ± 0.28	4.58 ± 0.57
LRCRKEFYQLVWSALPFITYLENK [POP5]	2.41 ± 0.9	2.07 ± 0.17
LREAVPGILRARRGEGIQAPSFSS [SOAT2]	3.4 ± 0.29	3.44 ± 0.35
LREKVEFLRSLRQMKQKVQSLYQE [NFE2L1]	2.09 ± 0.58	2.82 ± 0.52
LRFLLDQVQLGLRCCGAASYQDWQ [TSPAN10]	3.05 ± 0.49	3.22 ± 0.49
LRSRASRCRPRSLIDYKSYMDTKL [FAM189A2]	2.3 ± 0.28	2.19 ± 0.23
LSALKHAVLGLYLLVFLILVGIFI [SCARA5]	2.16 ± 0.63	2.08 ± 0.14
LSFSGSDVQNKLKESAQCVGDEFL [SNX8]	4.48 ± 0.2	4.49 ± 0.21
LSGVQRVESVFFGGGTPSLASPHT [RSAD1]	2.98 ± 0.27	3.07 ± 0.25
LSWYFLLCVNYFFYGETVADYFAT [CDS1]	3.11 ± 0.46	3.51 ± 0.53
LSYNLYDLLRNTHFRGVSLNLTRK [DYRK1B]	2.28 ± 0.36	2.15 ± 0.09
